B1: mRNA-splicing (parent)
chain: AGUUGCUGCUGGGAGCUCCAGCACAGUGAAAUGGACAGAAGGGCAGAGCAA

Variants of: B1
Assay: exon inclusion enrichment index; higher = more inclusion; WT1 exon 5 minigene, HEK293

| Variant | exon inclusion enrichment index |
| --- | --- |
| AGUUCACACAGGGAGCUCCAGACCAGUGAAAUGGACAGAAGGGCAGAGCAA | 0.364 |
| AGUUAGGGAUGGGGCCUCCAGCACAGUGAAAUGGACAGAAGGGCAGAGCAA | 0.00222 |
| AGUUCACACAGAGAGCUCCAGCACAGUGAAAUGGACAGAAGGGCAGAGCAA | 0.208 |
| AGUUCACACAGGGAGCUCCAGCACAGUGAAAUGGACAGAAGGGCAAAGCAA | 0.143 |
| AGUUUCUUACGGGAGCUCCAGCACAGUGAAAUGGACAGAAGGGCAGAGCAA | 0.61 |
| AGUUGCUGCUGGGAGAACCAGCACAGUGAAAUGGACAGAAGGGCAGAGCAA | 0.0497 |
| AGUUCUUCUCGGGCCCUCCAGCACAGUGAAAUGGACAGAAGGGCAGAGCAA | 0.406 |
| AGUUGAAGAAGGGAGCACCAGCACAGUGAAAUGGACAGAAGGGCAGAGCAA | 0.63 |
| AGUUCUUCUCGGGAGCUCCAGCACAGUGAAAUGGACAAAAGGGCAGAGCAA | 1.01 |
| AGUUGACGACGGGAGCUCCAGCACAGUGAAAUGGACAGAAGGGCUGAGCAA | 3.86 |
| AGUUAACUAUGGGAGCUCCAGCACAGUGAAAUGGACAGAAGGGCAGAGCAA | 0.165 |
| AGUUACCACCGGGAGCUCCAGCACAGUGAAAUGGAUGGAAGGGCAGAGCAA | 2.16 |
| AGUUGACGACGGGAGCUCCAGCACAGUGAAAUGGACAGAAGGACAGAGCAA | 4.63 |
| AGUUGCUGCUGGGAGCUCCAGUCCAGUGAAAUGGACAGAAGGGCAGAGCAA | 1.24 |
| AGUUACCACCGGGAGCUCCAGCACAGUGAAAUGGCAAGAAGGGCAGAGCAA | 1.46 |
| AGUUACCACCGGGAAUUCCAGCACAGUGAAAUGGACAGAAGGGCAGAGCAA | 1.55 |
| AGUUAUUCAUGGGAGCUCCAGCACAGUGAAAUGGACAGAAGGGCAGAGCAA | 0.357 |
| AGUUAGGGAUGGGAGCUCCAGCUUAGUGAAAUGGACAGAAGGGCAGAGCAA | 0.000744 |
| AGUUAUAUAUGCAAGCUCCAGCACAGUGAAAUGGACAGAAGGGCAGAGCAA | 0.0284 |
| AGUUAGGGAUGGGAGCUCCAGCACAGUGAAAUGGAUGGAAGGGCAGAGCAA | 0.00557 |
| AGUUGACGACGGGAGCUCACGCACAGUGAAAUGGACAGAAGGGCAGAGCAA | 2.73 |
| AGUUAGGGAUGGGAGCUCCAGCACAGUGAAAUGCUCAGAAGGGCAGAGCAA | 0.00103 |
| AGUUUCUUUUGGGAGCUCAAGCACAGUGAAAUGGACAGAAGGGCAGAGCAA | 0.0498 |
| AGUUCACACAGUAAGCUCCAGCACAGUGAAAUGGACAGAAGGGCAGAGCAA | 0.0173 |
| AGUUAUAUAUGGAUGCUCCAGCACAGUGAAAUGGACAGAAGGGCAGAGCAA | 0.189 |
| AGUUCACACAGGAAGCUCCAGCACAGUGAAAUGGACAGAAGGGCAGAGCAA | 0.277 |

| Variant | exon inclusion enrichment index |
| --- | --- |
| AGCUCACACAGGGAGCUCCAGCACAGUGAAAUGGACAGAAGGGCAGAGCAA | 0.0284 |
| AGUUUCUUUUCGGAGCUCCAGCACAGUGAAAUGGACAGAAGGGCAGAGCAA | 0.297 |
| AGUUCGCCACGGGAGCUCCAGCACAGUGAAAUGGACAGAAGGGCAGAGCAA | 3.14 |
| AGUUUCUUUUGGGAGCUCCAGCACAGUGAAAUGGACGAAAGGGCAGAGCAA | 0.184 |
| AGUUGAAGAAGGGAGCUCCAGCACAGUGAAAUGGACAGAAAGGCAGAGCAA | 0.4 |
| AGUUACCACCGGGGUCUCCAGCACAGUGAAAUGGACAGAAGGGCAGAGCAA | 0.925 |
| AGUUCCAGCCGGGAGCUCCAGCACAGUGAAAUGGACAGAAGGGCAGAGCAA | 1.62 |
| AGUUACCACCGGGAGCUCCGGCACAGUGAAAUGGACAGAAGGGCAGAGCAA | 2.79 |
| AGUUGCUGCUGGGAGCUCCAGCAGCGUGAAAUGGACAGAAGGGCAGAGCAA | 0.0375 |
| AUGUACCACCGGGAGCUCCAGCACAGUGAAAUGGACAGAAGGGCAGAGCAA | 4.12 |
| AGUUGAACACGGGAGCUCCAGCACAGUGAAAUGGACAGAAGGGCAGAGCAA | 1.95 |
| AGUUUCUUUUGGGAGCUCCAGCACAGUGAAAUGGGGAGAAGGGCAGAGCAA | 0.00476 |
| AGUUGAAGAAGGGGCCUCCAGCACAGUGAAAUGGACAGAAGGGCAGAGCAA | 0.529 |
| AUAUACCACCGGGAGCUCCAGCACAGUGAAAUGGACAGAAGGGCAGAGCAA | 3.36 |
| AGUUGCUGCUGGGAGCUCCAGCACAGUGAAAUGGACAGAAGGAAAGAGCAA | 0.778 |
| AGUUCUUCUCGGUUGCUCCAGCACAGUGAAAUGGACAGAAGGGCAGAGCAA | 0.592 |
| AGUUCGCGCCGGGAGCUCCAGCACUUUGAAAUGGACAGAAGGGCAGAGCAA | 3.03 |
| AGUUAUAUAUGGGAGCUCCAGCACAGUGAAAUGGACAGAAGGGCACGGCAA | 0.159 |
| AGUAGACGACGGGAGCUCCAGCACAGUGAAAUGGACAGAAGGGCAGAGCAA | 1.35 |
| AGUUGACGACGGGAGCUCCAGCACAGUGAAAUGGACAGAAGGGCAGCCCAA | 2.81 |
| AGUUGCUGCGUGGAGCUCCAGCACAGUGAAAUGGACAGAAGGGCAGAGCAA | 2.4 |
| AUUUGACGACGGGAGCUCCAGCACAGUGAAAUGGACAGAAGGGCAGAGCAA | 4.3 |
| AGUUAUAUAUGGGAGCUCCAGCACAGUGAAAUGGACAUUAGGGCAGAGCAA | 0.00248 |
| AGUUGACGACGGGAGCUCCAGCACAGUGAAAUGCGCAGAAGGGCAGAGCAA | 2.67 |
| AGUUAUAUAUGGGAGCUCCAGCACAGUGAAAUGGACAGAAGGGCGCAGCAA | 0.131 |

From the RNAGym collection of RNA variant scans (doi:10.1101/gr.219683.116)
